Experimental data from IntAct's records for PubMed 22322943.

B1: Axin-2 (Mus musculus), O88566 (parent)
chain: MSSAVLVTLLPDPSSSFREDAPRPPVPGEEGETPPCQPSVGKVQSTKPMPVSSNARRNEDGLGEPEGRASPDSPLTRWTKSLHSLLGDQDGAYLFRTFLEREKCVDTLDFWFACNGFRQMNLKDTKTLRVAKAIYKRYIENNSVVSKQLKPATKTYIRDGIKKQQIGSVMFDQAQTEIQAVMEENAYQVFLTSDIYLEYVRSGGENTAYMSNGGLGSLKVLCGYLPTLNEEEEWTCADLKCKLSPTVVGLSSKTLRATASVRSTETAENGFRSFKRSDPVNPYHVGSGYVFAPATSANDSELSSDALTDDSMSMTDSSVDGVPPYRMGSKKQLQREMHRSVKANGQVSLPHFPRTHRLPKEMTPVEPAAFAAELISRLEKLKLELESRHSLEERLQQIREDEEKEGSEQALSSRDGAPVQHPLALLPSGSYEEDPQTILDDHLSRVLKTPGCQSPGVGRYSPRSRSPDHHHQHHHHQQCHTLLPTGGKLPPVAACPLLGGKSFLTKQTTKHVHHHYIHHHAVPKTKEEIEAEATQRVRCLCPGGTDYYCYSKCKSHPKAPEPLPGEQFCGSRGGTLPKRNAKGTEPGLALSARDGGMSSAAGAPQLPGEEGDRSQDVWQWMLESERQSKSKPHSAQSIRKSYPLESACAAPGERVSRHHLLGASGHSRSVARAHPFTQDPAMPPLTPPNTLAQLEEACRRLAEVSKPQKQRCCVASQQRDRNHSAAGQAGASPFANPSLAPEDHKEPKKLASVHALQASELVVTYFFCGEEIPYRRMLKAQSLTLGHFKEQLSKKGNYRYYFKKASDEFACGAVFEEIWDDETVLPMYEGRILGKVERID

Variants of: B1
Details: with cdc20_human CDC20, Q12834
cdc20_human CDC20, Q12834, sequence (Q12834 whole entry): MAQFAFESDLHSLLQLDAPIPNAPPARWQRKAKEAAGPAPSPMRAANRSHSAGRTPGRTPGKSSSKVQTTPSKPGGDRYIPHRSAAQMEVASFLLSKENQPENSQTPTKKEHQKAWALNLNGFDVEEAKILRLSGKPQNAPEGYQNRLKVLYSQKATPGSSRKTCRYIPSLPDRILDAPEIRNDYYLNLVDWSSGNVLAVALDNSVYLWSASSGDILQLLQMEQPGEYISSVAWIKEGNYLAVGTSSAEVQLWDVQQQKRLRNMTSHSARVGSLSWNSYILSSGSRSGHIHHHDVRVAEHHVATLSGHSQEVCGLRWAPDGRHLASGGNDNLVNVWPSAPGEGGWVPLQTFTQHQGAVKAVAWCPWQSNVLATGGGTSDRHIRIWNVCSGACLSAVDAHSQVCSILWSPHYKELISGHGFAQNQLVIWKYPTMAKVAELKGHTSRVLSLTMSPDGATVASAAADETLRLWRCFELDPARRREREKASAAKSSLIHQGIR

Row | Variant | effect of a mutation on the interaction
1 | L99A | decreasing interaction
2 | R96A | decreasing interaction

Variants of: B1
Details: with cdc20_human CDC20, Q12834
Remark: another data set of the same source

Row | Variant | effect of a mutation on the interaction
3 | L660A | decreasing interaction
4 | R775A | decreasing interaction
5 | R388A | decreasing interaction
6 | L778A | decreasing interaction
7 | R657A | decreasing interaction
8 | L391A | decreasing interaction
9 | R776A | decreasing interaction
